Assay results: patent publication US20260137802A1 (CRISPR THERAPEUTICS, published 2026)

Tests used:
human CD117 ectodomain [1] = target: T1, human CD117 ectodomain (human, UniProt P10721 26-524, biotinylated (BirA co-expression) where captured on streptavidin biosensors); test: BLI (Octet), biotinylated ectodomain on SA biosensor, 1:1 global fit, monomeric Fc
T1 construct: extracellular domain; also called cKIT; full length AviTagged CD117 ectodomain; not shown: C-terminal AviTag or His tag
Description: (§1) Pre-equilibrated streptavidin biosensors (SA, from Sartorius) were coated with biotinylated CD117 ectodomain by dipping the biosensors into wells containing an optimized dilution of human or cyno CD117 ectodomain. After re-equilibrating the biosensor tips in assay buffer, the biosensors were dipped into supernatant containing the VHH antibodies to allow association between the antibodies and the CD117 ectodomain. Finally, the biosensors were dipped into the assay buffer. The VHH antibodies disassociated from the CD117 ectodomain if association occurred. The association and dissociation of each VHH antibody was characterized qualitatively to identify VHHs that could bind both human and cyno CD117 ectodomains.
(§2) For example, kinetics parameters of the top VHH antibodies for binding to human CD117 and cynomolgus monkey CD117 ectodomain were obtained from the Octet® analysis by Biolayer Interferometry as described above. A minimum of three concentrations of purified VHH antibodies were tested per ectodomain target. The Octet® software was used to perform a global kinetic fit across all concentrations using a 1:1 binding model. This allowed determination of the kinetic parameters, association rate (kₒₙ), dissociation rate (koff) and equilibrium constant (KD) for the 9 antibodies of interest. Total chi-squared (X²) was also examined to determine the goodness of fit for the software's kinetic model.

[2] = target: cynomolgus monkey CD117 ectodomain (cynomolgus monkey); test: as above
[3] = target: T2, human CD117 on cells (SKMEL-3 cells, CD34+ HSC) (human, UniProt P10721 26-976); test: flow cytometry, skMEL-3 cells, monomeric Fc
T2 construct: whole, on cells; also called CD117 on cell surfaces; CD117+ cells

[4] = target: T2, human CD117 on cells (SKMEL-3 cells, …); test: flow cytometry, CD34+ HSC, monomeric Fc
human CD117 ectodomain [5] = target: T1, human CD117 ectodomain; test: ELISA, human CD117, monovalent Fc fusion
human CD117 ectodomain [6] = target: T1, human CD117 ectodomain; test: BLI (Octet), biotinylated ectodomain on SA biosensor, 1:1 global fit, bivalent Fc
Description: as §1, §2

[7] = target: cynomolgus monkey CD117 ectodomain (cynomolgus monkey); test: as above
[8] = target: T2, human CD117 on cells (SKMEL-3 cells, …); test: flow cytometry, skMEL-3 cells, bivalent Fc
human CD117 ectodomain [9] = target: T1, human CD117 ectodomain; test: ELISA, human CD117, bivalent Fc fusion
[10] = target: T2, human CD117 on cells (SKMEL-3 cells, …); test: flow cytometry, CD34+ HSC, bivalent Fc
[11] = target: T3, truncated CD117 ectodomain, Domain 1 (UniProt P10721 26-112, limits assumed, biotinylated); test: BLI, truncated ectodomain on SA biosensor
T3 construct: domain: Domain 1; not shown: AviTag
Protocol: To identify the approximate binding epitopes of the VHH antibodies, truncated ectodomains were expressed as fusion polypeptides with an AviTag. Additionally, biotin is added to the protein during expression to allow capture of the material onto Streptavidin-coated (SA) biosensors. SA biosensors (Sartorius) were incubated with one of the truncated ectodomains. Full length CD117 ectodomain was used as a control. […] Except for P29 and P37, all others bind Domains 1-2 and Domains 1-3. Except for P37, all others bind Domains 1-4.

T3 sequence (P10721 26-112 limits assumed): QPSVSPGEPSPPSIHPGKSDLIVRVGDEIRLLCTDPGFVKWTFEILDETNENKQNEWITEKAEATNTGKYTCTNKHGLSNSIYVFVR
T1 sequence (P10721 26-524): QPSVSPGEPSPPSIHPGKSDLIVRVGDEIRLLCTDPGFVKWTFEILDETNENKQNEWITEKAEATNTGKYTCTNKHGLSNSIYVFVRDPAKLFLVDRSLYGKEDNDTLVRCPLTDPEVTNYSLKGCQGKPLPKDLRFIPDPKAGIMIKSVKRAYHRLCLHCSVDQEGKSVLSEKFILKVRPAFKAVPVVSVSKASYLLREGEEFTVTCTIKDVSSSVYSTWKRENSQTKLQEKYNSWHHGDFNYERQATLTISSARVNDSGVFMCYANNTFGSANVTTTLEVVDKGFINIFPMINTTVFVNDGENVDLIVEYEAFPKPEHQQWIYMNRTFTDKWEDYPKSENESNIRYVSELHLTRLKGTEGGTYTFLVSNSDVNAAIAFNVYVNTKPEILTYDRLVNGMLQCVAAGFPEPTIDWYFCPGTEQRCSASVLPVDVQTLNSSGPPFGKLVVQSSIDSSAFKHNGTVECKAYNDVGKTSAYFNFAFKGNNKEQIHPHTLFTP
T2 sequence (P10721 26-976): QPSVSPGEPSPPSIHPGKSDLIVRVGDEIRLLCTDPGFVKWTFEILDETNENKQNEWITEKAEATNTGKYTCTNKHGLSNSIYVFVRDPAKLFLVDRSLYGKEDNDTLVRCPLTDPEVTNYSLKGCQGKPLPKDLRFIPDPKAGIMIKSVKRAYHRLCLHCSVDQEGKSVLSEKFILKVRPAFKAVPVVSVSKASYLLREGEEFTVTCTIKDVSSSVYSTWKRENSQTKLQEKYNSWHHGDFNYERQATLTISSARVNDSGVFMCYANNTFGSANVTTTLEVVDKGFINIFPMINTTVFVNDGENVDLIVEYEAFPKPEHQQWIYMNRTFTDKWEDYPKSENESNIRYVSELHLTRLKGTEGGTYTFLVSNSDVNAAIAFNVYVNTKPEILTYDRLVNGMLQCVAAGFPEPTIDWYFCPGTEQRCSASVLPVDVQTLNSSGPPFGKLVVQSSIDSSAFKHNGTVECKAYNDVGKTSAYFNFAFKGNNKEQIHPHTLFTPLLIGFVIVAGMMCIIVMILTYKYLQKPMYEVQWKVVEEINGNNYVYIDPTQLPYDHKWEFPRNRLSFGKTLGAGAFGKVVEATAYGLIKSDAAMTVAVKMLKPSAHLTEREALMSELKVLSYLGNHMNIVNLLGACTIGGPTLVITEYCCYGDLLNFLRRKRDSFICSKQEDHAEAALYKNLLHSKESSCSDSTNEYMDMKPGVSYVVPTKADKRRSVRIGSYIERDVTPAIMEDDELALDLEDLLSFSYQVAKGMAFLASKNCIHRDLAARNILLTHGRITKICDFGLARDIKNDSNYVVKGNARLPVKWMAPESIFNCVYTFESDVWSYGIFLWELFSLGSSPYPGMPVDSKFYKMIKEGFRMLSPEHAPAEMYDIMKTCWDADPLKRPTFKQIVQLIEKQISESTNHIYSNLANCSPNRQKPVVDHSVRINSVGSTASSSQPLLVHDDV

Binder | Kd (human CD117 ectodomain [6]) | Kd [7] | EC50 [8] | Kd (human CD117 ectodomain [9]) | EC50 [10] | binding result [11] | other results
P-0010 (Fc fusion, Any second Fc chain without VHH is not described in the text; also called monovalent form of P10; not shown: Fc fragment) QVQLVESGGGLVQAGGSLRLSCVASGRTFSSYAMGWFRQGPGKEREFAAAILSNGLTTYYADSVKGRFTISRDNAKDTVYLQMNSLKPEDTANYYCAAAFTPEFRDGGIWDDASVDYWGQGTQVTVSS |  |  |  |  |  |  | Kd (human CD117 ectodomain [1]): 16.5 nM; Kd [2]: 54.9 nM; EC50 [3]: 2 nM; EC50 [4]: 2 nM; Kd (human CD117 ectodomain [5]): 0.28 nM
P-0053 (Fc fusion, also called P53; bivalent form of P10; not shown: Fc fragment) QVQLVESGGGLVQAGGSLRLSCVASGRTFSSYAMGWFRQGPGKEREFAAAILSNGLTTYYADSVKGRFTISRDNAKDTVYLQMNSLKPEDTANYYCAAAFTPEFRDGGIWDDASVDYWGQGTQVTVSS | < 1 pM | 0.00136 nM | 1 nM | 0.16 nM | 1 nM |  | 
P10 (VHH, also called P10/P53; anti-CD117 VHH P10) VHH: QVQLVESGGGLVQAGGSLRLSCVASGRTFSSYAMGWFRQGPGKEREFAAAILSNGLTTYYADSVKGRFTISRDNAKDTVYLQMNSLKPEDTANYYCAAAFTPEFRDGGIWDDASVDYWGQGTQVTVSS |  |  |  |  |  | no binding | 
P31 (VHH, also called P31/P55; anti-CD117 VHH P31) VHH: EVQLVESGGGLVRAGGSLRLSCAASGRTFTYDARAWFRQAPGKEREFVAAISWSGGSTYYPNSMKGRFTISRDNAKNTVYLQMNSLKPEDTAVYYCAADESFPAYYSDYALYRYWGQGTLVTVSS |  |  |  |  |  | no binding | 
P-0032 (Fc fusion, Any second Fc chain without VHH is not described in the text; also called monovalent form of P32; not shown: Fc fragment) QVQLVESGGGLVQAGDSLRLSCAASGRTFSSYAMGWFRQAPGKEREFVASITSSGLVAYYGDSVEARFTISRDNAKNTVYLQMDSLKPEDTAVYYCAARQYVGSGSYYLKKEGGYEYWGPGTQVTVSS |  |  |  |  |  |  | Kd (human CD117 ectodomain [1]): 1.86 nM; Kd [2]: 8.01 nM; Kd (human CD117 ectodomain [5]): 1.49 nM
P-0054 (Fc fusion, also called P54; bivalent form of P29; not shown: Fc fragment) QVHLVESGGGLVQAGGSLGLSCAASGHTFSNYAMGWFRQAPGKEREFVAAISWSGGSTLYADSVKGRFTISRDNGENTVYLQMNSLKPEDTAVYYCALDSTGVYGTGYVSSRKGRYEYWGQGTLVTVSS | 6.82 pM | 19.8 nM | > 50 nM | 0.54 nM | > 50 nM |  | 
P-0029 (Fc fusion, Any second Fc chain without VHH is not described in the text; also called monovalent form of P29; not shown: Fc fragment) QVHLVESGGGLVQAGGSLGLSCAASGHTFSNYAMGWFRQAPGKEREFVAAISWSGGSTLYADSVKGRFTISRDNGENTVYLQMNSLKPEDTAVYYCALDSTGVYGTGYVSSRKGRYEYWGQGTLVTVSS |  |  |  |  |  |  | Kd (human CD117 ectodomain [1]): 37.4 nM; EC50 [3]: > 50 nM; EC50 [4]: 50 nM; Kd (human CD117 ectodomain [5]): 2.48 nM
P-0027 (Fc fusion, Any second Fc chain without VHH is not described in the text; also called monovalent form of P27; not shown: Fc fragment) EVQLVESGGGLVRAGGSLRLSCAASGRTTFSTYWLGWFRQAPGKNREFVAAISWSAGMAYYQDSKGRFTISRDNTKNTAYLQMNSLQPEDTAVYYCAAGRFHPIRVDTALYWAQGTQVTVSS |  |  |  |  |  |  | Kd (human CD117 ectodomain [1]): 44.7 nM; Kd [2]: 8.11 nM; EC50 [3]: 10 nM; EC50 [4]: 10 nM; Kd (human CD117 ectodomain [5]): 1.32 nM
P27 (VHH, also called P27/P60; anti-CD117 VHH P27) VHH: EVQLVESGGGLVRAGGSLRLSCAASGRTTFSTYWLGWFRQAPGKNREFVAAISWSAGMAYYQDSKGRFTISRDNTKNTAYLQMNSLQPEDTAVYYCAAGRFHPIRVDTALYWAQGTQVTVSS |  |  |  |  |  | no binding | 
P-0060 (Fc fusion, also called P60; bivalent form of P27; not shown: Fc fragment) EVQLVESGGGLVRAGGSLRLSCAASGRTTFSTYWLGWFRQAPGKNREFVAAISWSAGMAYYQDSKGRFTISRDNTKNTAYLQMNSLQPEDTAVYYCAAGRFHPIRVDTALYWAQGTQVTVSS | 240 pM | 2.16 nM | 2 nM | 0.14 nM | 2 nM |  | 
P-0059 (Fc fusion, also called P59; bivalent form of P12; not shown: Fc fragment) QVQLVESGGGLVQAGGSLRLSCTASGDTFSSYSMGWFRQGPGKEREFVGGIRWSGGTTYYADSVKGRFTISRDNAKNTVYLQMNSLKREDTAVYYCAAVRRRWLIWQEEEYDYWGQGTLVTVSS | 44.6 pM | 0.0112 nM | 50 nM | 0.06 nM | 50 nM |  | 
P-0012 (Fc fusion, Any second Fc chain without VHH is not described in the text; also called monovalent form of P12; not shown: Fc fragment) QVQLVESGGGLVQAGGSLRLSCTASGDTFSSYSMGWFRQGPGKEREFVGGIRWSGGTTYYADSVKGRFTISRDNAKNTVYLQMNSLKREDTAVYYCAAVRRRWLIWQEEEYDYWGQGTLVTVSS |  |  |  |  |  |  | Kd (human CD117 ectodomain [1]): 49.2 nM; EC50 [3]: > 10 nM; EC50 [4]: > 10 nM; Kd (human CD117 ectodomain [5]): 1.04 nM
P-0056 (Fc fusion, the alignment instead labels 'P35/P57' and 'P32/P56'; also called P56; not shown: Fc fragment) QVQLVESGGGLVQAGGSLRLSCAASGGTFSIYPVGWFRQAPGKQREFVAAIGWSASGTYYGDSVEGRFTVSRDNARSTVYLRMSSLKPDDTAVYYCAAASGSNWRLGAIDEYDSWGQGTQVTVSS | 602 pM | 0.647 nM | 3 nM | 0.36 nM | 10 nM |  | 
P35 (VHH, also called anti-CD117 VHH P35) VHH: QVQLVESGGGLVQAGGSLRLSCAASGGTFSIYPVGWFRQAPGKQREFVAAIGWSASGTYYGDSVEGRFTVSRDNARSTVYLRMSSLKPDDTAVYYCAAASGSNWRLGAIDEYDSWGQGTQVTVSS |  |  |  |  |  | no binding | 

The next lines start with results.

Kd (human CD117 ectodomain [6]) | Kd [7] | EC50 [8] | Kd (human CD117 ectodomain [9]) | EC50 [10] | binding result [11] | Binder | other results
1.26 pM | 0.0112 nM | 1 nM | 0.21 nM | 2 nM |  | P-0072 (Fc fusion, also called P72; bivalent form of P38; not shown: Fc fragment) EVQLVESGGGLVQAGGSLRLSCAASGRTSGSYVMGWFRQAPGKEREFVAAISWSAGMTYYADSVKGRFTISRDNAKNTVYLQMNSLKPEDTAVYYCAADQRGVPAYYSDYALYDYWGQGTQVTVSS | 
 |  |  |  |  | no binding | P38 (VHH, also called P38/P72; anti-CD117 VHH P38) VHH: EVQLVESGGGLVQAGGSLRLSCAASGRTSGSYVMGWFRQAPGKEREFVAAISWSAGMTYYADSVKGRFTISRDNAKNTVYLQMNSLKPEDTAVYYCAADQRGVPAYYSDYALYDYWGQGTQVTVSS | 
1.24 pM | 0.961 nM | 1 nM | 0.22 nM | 1 nM |  | P-0055 (Fc fusion, also called P55; bivalent form of P31; not shown: Fc fragment) EVQLVESGGGLVRAGGSLRLSCAASGRTFTYDARAWFRQAPGKEREFVAAISWSGGSTYYPNSMKGRFTISRDNAKNTVYLQMNSLKPEDTAVYYCAADESFPAYYSDYALYRYWGQGTLVTVSS | 
 |  |  |  |  | no binding | P32 (VHH, also called anti-CD117 VHH P32) VHH: QVQLVESGGGLVQAGDSLRLSCAASGRTFSSYAMGWFRQAPGKEREFVASITSSGLVAYYGDSVEARFTISRDNAKNTVYLQMDSLKPEDTAVYYCAARQYVGSGSYYLKKEGGYEYWGPGTQVTVSS | 
2.15 pM | 1.7 nM |  | 0.21 nM |  |  | P-0057 (Fc fusion, the alignment instead labels 'P35/P57' and 'P32/P56'; also called P57; not shown: Fc fragment) QVQLVESGGGLVQAGDSLRLSCAASGRTFSSYAMGWFRQAPGKEREFVASITSSGLVAYYGDSVEARFTISRDNAKNTVYLQMDSLKPEDTAVYYCAARQYVGSGSYYLKKEGGYEYWGPGTQVTVSS | 
1.89 pM | 0.00166 nM | 3 nM | 0.33 nM | 50 nM |  | P-0058 (Fc fusion, also called P58; bivalent form of P37; not shown: Fc fragment) QVQLVESGGGLVQAGDSLRLSCAVSGRTLSNYFMAWLRQAPGKEREFVAAIHWSLGSTYYQDPVKGRFTISRDKAKNTVYLQMNTLKPEDTATYICAAGQHLSGLGGSAWSIEGDYWGQGTQVTVSS | 
